Experimental data from publication PMC10020445, “Mechanism underlying delayed rectifying in human voltage-mediated activation Eag2 channel” (Nature Communications, 2023).

Target: the molecule itself
Assay: cryo-EM structure; purified hEag2 in 20 mM Tris-HCl pH 8.0, 150 mM KCl, 1 mM MgCl2, 0.03% digitonin, about 5 mg/ml; six maps (closed 1, closed 2, pre-open 1, pre-open 2, open, pore dilation but non-conducting) refined with C4 symmetry imposed

B1: human Eag2 (hEag2) voltage-gated potassium channel (natural protein, UniProt Q8NCM2 1-988, looked up)
chain: MPGGKRGLVAPQNTFLENIVRRSSESSFLLGNAQIVDWPVVYSNDGFCKLSGYHRADVMQKSSTCSFMYGELTDKKTIEKVRQTFDNYESNCFEVLLYKKNRTPVWFYMQIAPIRNEHEKVVLFLCTFKDITLFKQPIEDDSTKGWTKFARLTRALTNSRSVLQQLTPMNKTEVVHKHSRLAEVLQLGSDILPQYKQEAPKTPPHIILHYCAFKTTWDWVILILTFYTAIMVPYNVSFKTKQNNIAWLVLDSVVDVIFLVDIVLNFHTTFVGPGGEVISDPKLIRMNYLKTWFVIDLLSCLPYDIINAFENVDEGISSLFSSLKVVRLLRLGRVARKLDHYLEYGAAVLVLLVCVFGLVAHWLACIWYSIGDYEVIDEVTNTIQIDSWLYQLALSIGTPYRYNTSAGIWEGGPSKDSLYVSSLYFTMTSLTTIGFGNIAPTTDVEKMFSVAMMMVGSLLYATIFGNVTTIFQQMYANTNRYHEMLNNVRDFLKLYQVPKGLSERVMDYIVSTWSMSKGIDTEKVLSICPKDMRADICVHLNRKVFNEHPAFRLASDGCLRALAVEFQTIHCAPGDLIYHAGESVDALCFVVSGSLEVIQDDEVVAILGKGDVFGDIFWKETTLAHACANVRALTYCDLHIIKREALLKVLDFYTAFANSFSRNLTLTCNLRKRIIFRKISDVKKEEEERLRQKNEVTLSIPVDHPVRKLFQKFKQQKELRNQGSTQGDPERNQLQVESRSLQNGASITGTSVVTVSQITPIQTSLAYVKTSESLKQNNRDAMELKPNGGADQKCLKVNSPIRMKNGNGKGWLRLKNNMGAHEEKKEDWNNVTKAESMGLLSEDPKSSDSENSVTKNPLRKTDSCDSGITKSDLRLDKAGEARSPLEHSPIQADAKHPFYPIPEQALQTTLQEVKHELKEDIQLLSCRMTALEKQVAEILKILSEKSVPQASSPKSQMPLQVPPQIPCQDIFSVSRPESPESDKDEIHF
notes: human Eag2 potassium channel (hEag2), UniProtKB Q8NCM2; gene placed before a PreScission protease site, followed by C-terminal EGFP and FLAG; the C-terminal GFP tag was removed with HRV 3C protease; the methods describe only one construct; FLAG stands after EGFP behind the protease site, so it leaves with the GFP tag; Residues with poor side-chain density were modelled as alanines in the …
stoichiometry N: 4
